{"source": "the nanobody polyreactivity screen of Harvey et al. (2022)", "data": [{"experiment": "yeast display, Sf9 membrane polyspecificity reagent, FACS + sequencing; frameworks hold sequencing errors", "procedure,_shortened": "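Genes from sorted yeast were amplified by colony PCR, read by MiSeq 2 × 250 sequencing and filtered on CDR length. These cells carried a synthetic nanobody library in Saccharomyces cerevisiae BJ5465 and were sorted by FACS into low and high (top ~1%) gates on anti-HA and streptavidin fluorescence. Polyreactivity is labelled according to the gate of origin.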", "values": [{"sequence": "QVQLVESGGGLVQAGGSLRLSCAASGSTFVKNAMGWYRQAPGKERELVAAISGRGGSTYYADSVKGRFTISRDNAKNTVYLQMNSLKPEDTAVYYCNKAYSVAYTYNYWGQGTQVTVSS", "polyreactivity (PSR sort gate)": "high polyreactivity"}, {"sequence": "QVQHVESGGGLVQAGGSLRLSCAASGRTFPINAMGWYRPAPGKERELVARISRTSGSTYYADSVKGRFTISRDNAKNTVYLQMNSLKPEDTAVYYCAAVRDKYFRASYGYWGQGTQVTVSS", "polyreactivity (PSR sort gate)": "high polyreactivity"}, {"sequence": "QVQLVESGGGLVQAGGSLRLSCAASGLTFDYYAMGWYRQAPGKERELVAAIDWSGGSTYYADSVKGRFTISRDNAKNTVYLQMNSLKPEDSAVYYCATESDDSGMDYWGQGTQVTVSS", "polyreactivity (PSR sort gate)": "low polyreactivity"}, {"sequence": "QVQLVESGGGLVQAGGSLRLSCAASGSIFWYNAMGWYRQAPGKESELVAAISWDGGSTYYADSVKGRFTISRDNAKNTVYLQMNSLKPEDTAVYYCNRVYIVWYTRYVVSGWYDYWGQGTEVTVSS", "polyreactivity (PSR sort gate)": "high polyreactivity"}, {"sequence": "QVQLVESGGGLVQAGGSLRLSCAASGFTFAYNAMGWYRQAPGKERELVATISWSGGSTYYADSVKGRFTISRDNAKNTVYLQMNSLKPEDTAVYYCATTIFYTYYGLYDYWGQGTQVTVSS", "polyreactivity (PSR sort gate)": "high polyreactivity"}, {"sequence": "QVQLVESGGGLVQAGGSLRLSCAASGYNFHDYAMGWYRQAPGKERELFAAISKRGGSTYYADSVKGRFTISRDNAKNTVYLQMNSLKPEDTAVYYCAKGGPHRGTGLNDYWGQCTQVTVSS", "polyreactivity (PSR sort gate)": "high polyreactivity"}, {"sequence": "QDQLVESVGGLVQAGGSLRLSCAASGSIFRLYAMGWYRHAPGKERELVAGITSSDGSTYADSVKGRFTISRDNAKNTVYLQMNSLKPEDTAVYYCAARGYVRWYNRYDYWGQGTQVTVSS", "polyreactivity (PSR sort gate)": "low polyreactivity"}, {"sequence": "QVQLVESGGGLVQAGGSLRLSCAASGSIFKVYAMGWYRQAPGKERELVATISGSGGSTYYADSVKGRFTISRDNAKNTVYLQMNSLKPEDTAVYYCAAEVYVPDYFQHKFDVEYEYWGQGTQVTVSS", "polyreactivity (PSR sort gate)": "low polyreactivity"}, {"sequence": "QVQLVESGGGLVQAGGSLRLSCAASGSIFRINDMGWYRQAPGKERELVAAITFSGGSTYADSVKGRFTISRDNAKNTVNLQMNSLKPEDTAVYYCNADGAYWTDYYLYDYWGQGTQVTVSS", "polyreactivity (PSR sort gate)": "low polyreactivity"}, {"sequence": "QVQLVESGGGLVQEGGSLRLSCAASGRTFADYTMGWYRQAPGKERELVAAISFSGGSTYYEDSVKGRFTISRDNAKNTVYLQMNSLKPEDTAFYYCAAGHKRRAPRYYYWGQGTQVTVSS", "polyreactivity (PSR sort gate)": "high polyreactivity"}, {"sequence": "QVQLVESCGGLVQAGCSLRLSCAASGRTFVWYAMGWNRQAPGKERELVAAITLSGGSTYYADSVKGRFTISRDNAKNTVFLQMNSLIPEDTAVYYCAADGTYRPEDYDYWGQGTQVTVSS", "polyreactivity (PSR sort gate)": "low polyreactivity"}, {"sequence": "HVQLVESGGGLVQAGGSLRLSCAASGRILHLNAMGWYRQAPGKERELVAAITRSGSSTYYADSVKGRFTISRDNAKNTVYLQMNSLKAEDTAVYYCAADWYPHSSAYDYWGQGTQVTVSS", "polyreactivity (PSR sort gate)": "low polyreactivity"}, {"sequence": "QVQLVESGGGLVQAGGSLRLSCAASGFTFSKYGMGWYRQAPGKERELVAAISSGGSTHYADSVKGRFTISRDNAKNTVYLQMNILKPADTAVYYCNASSKFAKPQRYYWGQGTQVTVSS", "polyreactivity (PSR sort gate)": "low polyreactivity"}, {"sequence": "QVQLVESGGGLVQAGGSLRLSCAASGRIVRPNAMGWYRQAPGKERELVAAIRSTVGSTFYADSVKGRFTISRDNAKNTVYLEMISLKPEDTAVYDCAAGTSRQFFYWGQGTQVTVAS", "polyreactivity (PSR sort gate)": "low polyreactivity"}, {"sequence": "QVQLVESGGGLVQAGGSLLVSCAASGRIFSYNAMGWYRQAPGKERELVAAITRSGSTNYADSVKGRFTISRDNANNTVYLQMNSLKPEDTAVYYCAAVVYRPYRWQYDYWGQGTQVTVSS", "polyreactivity (PSR sort gate)": "high polyreactivity"}, {"sequence": "QVQLVESGGGLVQAGGSLRLSCAASGLIRYTYAMGWYRQAPGKERELVAAINSGGRTYYADSVKGRFTISRDNAKNTVYLQMNSLKPEYTAVYSCAADYGSRVRGFNYWGQGTQVTVSS", "polyreactivity (PSR sort gate)": "low polyreactivity"}, {"sequence": "QVQLVESGGGLVQAGGILRLSCAASGRIFRGYAMGWYIQAPAKERELVASIDWNGGRTYYADSEKGRFTISRDNAKNTVYLQMNSLKPEDTAVYYCAVLPYRTLYNYYYWGQGTQVTVSS", "polyreactivity (PSR sort gate)": "high polyreactivity"}, {"sequence": "QVQLVESGGGLVQAGGSLRLSCAASGRIFTTYAMGWYRQAPGKERELVASISWRVGSTYYADTVKGRFTISRDNAKITVYLQMNSLKPEETAVYYCAAVGGNYHASRLRYYWGQVTQVTVSS", "polyreactivity (PSR sort gate)": "low polyreactivity"}, {"sequence": "QVQLVESGGGLVQAGGSLRLSCAASGSNYYWYAMVWSRQAPGKEMELVADITTSDGRTYYADSVKGRFTISRDNAKNTVYFLMNSLKPEDTAVYYCAADPFSGYGFQYYRGLYYWGQGTQVSVSS", "polyreactivity (PSR sort gate)": "low polyreactivity"}, {"sequence": "QVQLVESGGGLVQAGGSLRLSCAASGSIFGTYAMGWYRPAPGNERELVAAITWRDDGNTYYADSVQGRFTISRDNAKNTVYLQMNSLQPEDTAVYYGAASRAYGKDAYRGYSYRYDYWGQGTQGTVSS", "polyreactivity (PSR sort gate)": "high polyreactivity"}, {"sequence": "QVQLVESGGGLVQAGGSLRLSCAASGRIFGSYAMGWYRQAHGKERELVAAIRWSGGSTYYADSVKGRFTISRDNAKNTVYLQMNSLKPEDTAVYYCAKTRTGYCFSYGYWGQGTQVTVSS", "polyreactivity (PSR sort gate)": "high polyreactivity"}, {"sequence": "QVQLVESGGGLVQAVASLRLSCAASGRIFGPYAMGWDRQAPGKERELVASITRSGGRTYYADSVKGRFTISRDYAKNTVYLQMNSLKPDDTAVYYCAAGGFSKSDYYWGQGTQVTVSS", "polyreactivity (PSR sort gate)": "high polyreactivity"}, {"sequence": "QVQLVESGGGLVQAGGSLRLSCAASGLIFGRYAMGGYRQAPGKEREFVAAITWRVGTTYYADSVKGRFTISRDNAKITVYLQMNSLKPEDTAVYYCAARSRTGRYDYWGQGTQVTVSS", "polyreactivity (PSR sort gate)": "high polyreactivity"}, {"sequence": "QVQLVESGGGLVQAGGSLRFSCAASGITFSSYGMGWYRQAPGKERELVAAISWDSGSTYYADSVKGRFTISRDNAKNTVYLQMNSLKPEQTAVYYCNAVYYSVYRFDYWGQGTQVTVSS", "polyreactivity (PSR sort gate)": "high polyreactivity"}, {"sequence": "QVQLVESGGGLVQAGGSLRLSCAASGRTIGGNAMGRYRQAPGKERELVAAISWSGGRTYYADSVKGRFTISRDNAKNTVYLQMNSLKPEDTAVYYCNKVGYGFHGDYDYWGQGTQVTVSS", "polyreactivity (PSR sort gate)": "high polyreactivity"}, {"sequence": "QVQLVESGGGLVQAGGSLRLSCAASGITFPDNAMGWSRQAPGKERELVAAITYSGGSTYYADSVKGRFTISRDNAKNTVYLQMNSLKPEDTAVYYCAADWYWSSSYSDWEDYWGQGTQVTVSS", "polyreactivity (PSR sort gate)": "low polyreactivity"}, {"sequence": "QVQLGESGGGLVQAGGSLRLTCAASGFTFRGYAMGWYRQAPGKEWELVAANSRRGGSTYYADSVKGRFTISRDNAKYTVYLQMNSLKPEETAVYYCNAVGRFYFRFPPNNEYDYWGQGTQVTVSS", "polyreactivity (PSR sort gate)": "high polyreactivity"}, {"sequence": "QVQLVESGGGLVQAGGSLRLSCAASGRIFYRYAMGWYRQAPGKERELVASITRSGITHYADSVKGRFTISRDNAKNTVYLQMNSLKPEDTAVYYCNARRGSPAPYDYWGQGTQVTVSS", "polyreactivity (PSR sort gate)": "high polyreactivity"}, {"sequence": "QVQLVESCGGIVQAGGSLRLSCAASGRIFGENAMGWYRQEPGKEREFVAVISISDASTYYADSVKGRFTISRDNAKNTVFFQMNSLKPEDTAVYYCAAEGPDSYSMDYWGQGTQVTVSS", "polyreactivity (PSR sort gate)": "low polyreactivity"}, {"sequence": "QVQLVESGGGLVQAGGSLRLSCAASGSTFRSNVMGWYRQAPGKERELVAAITSSGGSTYYADSVKGRFTISRDNAKNTVYLQMNSLKPEDTAVYYCAVDYYYGFDWGQGTQVTVSS", "polyreactivity (PSR sort gate)": "low polyreactivity"}, {"sequence": "QVQLVESGGGLVQAGGSLRLSCAASGSIFSQYAMGWYRQAPGKERELVAAITYGGGSTYYADSVKGRFTISRDNAKNTVYFQMNSLKPEDTAVYYCAKEFKYWGYPYDYWGQGTQVTVSS", "polyreactivity (PSR sort gate)": "low polyreactivity"}, {"sequence": "QLQLLESAVGLVQAGGSLRLSCASSGRIFTQNTMGWYRQAPAKESELVAAINYSGGRTNYADSVKGRFTISRDNAKNTVYLQMNSLKPEDTAVYYCAAGYRRATYGYWGQGTQVTVSS", "polyreactivity (PSR sort gate)": "high polyreactivity"}]}]}
